Test results reported in patent US20200079855A1 (Pfizer, published 2020).

What was measured:
[1] = target: T1, human αvβ8 integrin on U251 cells (human, UniProt P06756 31-1048)
[2] = target: T1, human αvβ8 integrin on U251 cells; assay: cell-based or functional assay
[3] = target: T1, human αvβ8 integrin on U251 cells; assay: flow cytometry on U251 cells
[4] = target: T2, mouse αvβ8 integrin on C8-S cells (mouse, UniProt P43406 31-1044; Q0VBD0 22-767); assay: flow cytometry on C8-S cells
T2 construct: Endogenous αvβ8 of C8-S mouse astrocyte cells; also called C8-S (mouse astrocyte); C8-S (mouse avb8)
T2 sequence (P43406 31-1044 limits assumed, chain 1 of 2): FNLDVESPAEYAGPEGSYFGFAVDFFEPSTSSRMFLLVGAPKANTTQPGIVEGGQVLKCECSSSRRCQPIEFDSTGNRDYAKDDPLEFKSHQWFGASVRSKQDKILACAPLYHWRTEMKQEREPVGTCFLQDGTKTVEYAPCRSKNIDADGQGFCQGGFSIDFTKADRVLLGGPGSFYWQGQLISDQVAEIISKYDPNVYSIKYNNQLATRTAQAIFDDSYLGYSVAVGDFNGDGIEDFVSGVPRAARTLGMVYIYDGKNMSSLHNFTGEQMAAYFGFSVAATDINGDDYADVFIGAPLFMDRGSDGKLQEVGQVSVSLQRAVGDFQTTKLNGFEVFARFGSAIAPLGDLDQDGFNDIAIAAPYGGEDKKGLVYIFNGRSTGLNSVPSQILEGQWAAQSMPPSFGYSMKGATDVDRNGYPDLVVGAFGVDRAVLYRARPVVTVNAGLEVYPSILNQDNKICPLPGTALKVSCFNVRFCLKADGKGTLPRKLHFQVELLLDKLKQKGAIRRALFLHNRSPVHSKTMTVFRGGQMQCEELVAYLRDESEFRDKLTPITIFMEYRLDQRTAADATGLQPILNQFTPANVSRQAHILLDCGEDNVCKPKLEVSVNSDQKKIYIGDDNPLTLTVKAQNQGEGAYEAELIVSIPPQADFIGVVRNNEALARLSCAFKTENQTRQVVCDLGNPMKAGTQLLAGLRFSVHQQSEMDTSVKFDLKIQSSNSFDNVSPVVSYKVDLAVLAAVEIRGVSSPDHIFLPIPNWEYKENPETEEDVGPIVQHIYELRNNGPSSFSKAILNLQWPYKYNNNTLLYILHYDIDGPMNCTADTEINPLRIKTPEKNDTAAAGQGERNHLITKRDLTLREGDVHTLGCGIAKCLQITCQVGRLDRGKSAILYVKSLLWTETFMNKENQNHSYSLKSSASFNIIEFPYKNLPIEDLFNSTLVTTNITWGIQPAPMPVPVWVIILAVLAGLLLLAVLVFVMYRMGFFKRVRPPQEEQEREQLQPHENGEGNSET
T2 sequence (Q0VBD0 22-767 limits assumed, chain 2 of 2): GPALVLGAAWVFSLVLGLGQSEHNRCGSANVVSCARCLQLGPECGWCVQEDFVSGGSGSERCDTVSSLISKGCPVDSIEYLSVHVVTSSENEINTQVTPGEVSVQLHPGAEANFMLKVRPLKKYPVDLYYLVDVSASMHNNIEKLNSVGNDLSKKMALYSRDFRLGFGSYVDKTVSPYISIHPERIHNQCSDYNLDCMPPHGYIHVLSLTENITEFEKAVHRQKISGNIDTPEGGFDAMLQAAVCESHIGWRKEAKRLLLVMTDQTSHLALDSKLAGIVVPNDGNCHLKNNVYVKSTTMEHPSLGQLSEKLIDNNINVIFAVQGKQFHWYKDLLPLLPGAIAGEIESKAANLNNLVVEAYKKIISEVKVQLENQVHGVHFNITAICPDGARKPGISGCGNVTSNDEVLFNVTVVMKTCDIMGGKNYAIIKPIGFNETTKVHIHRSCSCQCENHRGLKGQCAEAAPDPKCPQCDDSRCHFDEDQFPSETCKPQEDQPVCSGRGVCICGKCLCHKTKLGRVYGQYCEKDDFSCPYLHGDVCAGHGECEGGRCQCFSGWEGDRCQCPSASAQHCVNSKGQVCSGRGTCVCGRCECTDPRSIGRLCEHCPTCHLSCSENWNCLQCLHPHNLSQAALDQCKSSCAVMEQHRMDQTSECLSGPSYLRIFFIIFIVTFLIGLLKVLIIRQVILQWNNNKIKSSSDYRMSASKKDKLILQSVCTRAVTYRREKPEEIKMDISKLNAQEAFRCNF
Method: (§1) 100,000 cells were incubated with a dilution series of the anti-αvβ8 or human IgG1_3 mut Isotype antibody for three to four hours on ice. The cells were spun down for five minutes at 300 g force. The cells were then washed three times with wash buffer (PBS+0.2% BSA) to remove excess unbound antibodies. After thorough washing, cells were incubated with Fab′2 anti-human Fc-PE (Invitrogen) or goat Fab′2 anti-mouse-APC (Jackson Labs) at 1:1000 dilution along with LIVE/DEAD fixable cell stain (Invitrogen) at 1:2000 to distinguish live cells. The whole content was incubated for 30 minutes on ice. After washing, the stained cells were analyzed on BD biosciences Fortessa flow cytometer (gated for live cells) using FlowJo analysis software. The mean fluorescence intensities (MFI) at different antibody concentrations were plotted for various antibodies.
(§2) The apparent-affinity of ADWA11 2.4 for U251 (human glioblastoma) or C8-S (mouse astrocyte) cells was also evaluated in a cell-binding assay, according to the methods as generally described herein. Briefly, cells were incubated with a serial dilution of ADWA11 2.4 for 4 hours on ice, followed by detection on bound antibody with an anti-human-PE secondary antibody, and analyzed by flow cytometry.

[5] = target: T2, mouse αvβ8 integrin on C8-S cells; assay: cell-based or functional assay
[6] = target: T3, recombinant human αvβ3 integrin (human, UniProt P06756 31-992; P05106 27-718); assay: SPR (Biacore), recombinant integrin immobilised
T3 construct: Used in ELISA and immobilised on the Biacore chip; construct not described; also called hαvβ3; AVB3
Method: (§3) To evaluate the specificity of ADWA11 2.4, recombinant human αvβ6 and αvβ3 were immobilized on a Biacore chip and binding of the parental murine and humanized mAb variant of ADWA11 2.4 was determined.

[7] = target: T4, recombinant human αvβ6 integrin (human, UniProt P06756 31-992; P18564 22-707); assay: SPR (Biacore), recombinant integrin immobilised
T4 construct: Used in ELISA and immobilised on the Biacore chip; construct not described; also called hαvβ6; AVB6
Method: as §3

[8] = target: T1, human αvβ8 integrin on U251 cells; assay: flow cytometry on live U251 cells, 4 hours on ice, anti-human-PE secondary, n=3
[9] = target: T5, human αvβ8 integrin on HEK293-F cells (human, UniProt P06756 31-1048; P26012 43-769); assay: flow cytometry, titration on HEK cells overexpressing human integrin β8, right panel
T5 construct: whole, on cells; HEK293-F cells transiently expressing the full length beta subunit; also called HEK cells expressing αvβ8
T5 sequence (P06756 31-1048, chain 1 of 2): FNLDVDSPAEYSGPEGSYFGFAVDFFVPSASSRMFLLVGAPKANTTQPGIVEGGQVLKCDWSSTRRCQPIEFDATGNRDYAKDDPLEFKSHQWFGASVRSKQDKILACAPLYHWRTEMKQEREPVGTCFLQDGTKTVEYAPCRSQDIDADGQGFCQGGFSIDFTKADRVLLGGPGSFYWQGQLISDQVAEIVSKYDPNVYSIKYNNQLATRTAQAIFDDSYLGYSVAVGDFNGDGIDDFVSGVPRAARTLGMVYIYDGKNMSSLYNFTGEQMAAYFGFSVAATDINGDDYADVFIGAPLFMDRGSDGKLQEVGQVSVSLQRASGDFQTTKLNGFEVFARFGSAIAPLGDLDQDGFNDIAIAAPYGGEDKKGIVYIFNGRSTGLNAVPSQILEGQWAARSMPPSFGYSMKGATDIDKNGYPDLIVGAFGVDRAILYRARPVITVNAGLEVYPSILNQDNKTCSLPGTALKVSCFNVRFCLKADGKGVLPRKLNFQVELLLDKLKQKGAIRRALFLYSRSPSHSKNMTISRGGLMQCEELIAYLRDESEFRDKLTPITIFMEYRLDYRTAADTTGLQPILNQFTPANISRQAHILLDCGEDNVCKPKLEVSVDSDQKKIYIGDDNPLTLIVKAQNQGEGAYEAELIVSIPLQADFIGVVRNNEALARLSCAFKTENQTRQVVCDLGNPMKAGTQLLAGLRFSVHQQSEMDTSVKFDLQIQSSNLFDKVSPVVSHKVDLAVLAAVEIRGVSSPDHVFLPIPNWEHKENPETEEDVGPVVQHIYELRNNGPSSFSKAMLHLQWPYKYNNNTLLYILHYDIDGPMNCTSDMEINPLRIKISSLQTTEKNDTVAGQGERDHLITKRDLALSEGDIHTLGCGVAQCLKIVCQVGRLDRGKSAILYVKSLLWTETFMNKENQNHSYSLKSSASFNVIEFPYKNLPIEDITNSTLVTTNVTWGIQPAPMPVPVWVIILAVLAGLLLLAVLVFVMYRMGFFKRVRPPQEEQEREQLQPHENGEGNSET
T5 sequence (P26012 43-769, chain 2 of 2): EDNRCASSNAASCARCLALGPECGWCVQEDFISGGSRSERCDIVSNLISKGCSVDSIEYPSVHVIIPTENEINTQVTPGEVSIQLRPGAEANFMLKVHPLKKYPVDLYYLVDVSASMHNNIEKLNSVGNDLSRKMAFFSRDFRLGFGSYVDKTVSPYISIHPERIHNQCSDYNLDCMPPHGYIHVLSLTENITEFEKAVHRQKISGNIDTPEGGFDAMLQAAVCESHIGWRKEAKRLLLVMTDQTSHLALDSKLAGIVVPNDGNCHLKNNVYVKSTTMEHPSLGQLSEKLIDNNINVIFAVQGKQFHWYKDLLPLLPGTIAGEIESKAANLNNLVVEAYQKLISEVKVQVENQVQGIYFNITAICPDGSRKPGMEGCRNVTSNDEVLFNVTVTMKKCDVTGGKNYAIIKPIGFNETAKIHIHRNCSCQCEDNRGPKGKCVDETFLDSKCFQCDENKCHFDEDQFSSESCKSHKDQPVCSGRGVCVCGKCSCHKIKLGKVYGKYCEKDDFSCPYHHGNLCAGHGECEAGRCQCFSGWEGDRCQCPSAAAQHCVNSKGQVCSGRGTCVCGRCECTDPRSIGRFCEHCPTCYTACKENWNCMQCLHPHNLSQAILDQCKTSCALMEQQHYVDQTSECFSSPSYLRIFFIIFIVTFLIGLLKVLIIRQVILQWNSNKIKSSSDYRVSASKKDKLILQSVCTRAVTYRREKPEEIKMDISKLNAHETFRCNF
Method: (§4) For cell-binding experiments with HEK293-F cells overexpressing human αvβ3, αvβ5, αvβ6, αvβ8. HEK293-F cells transiently expressing full length human integrin beta 3 (Accession No. NP_000203.2), human integrin beta 5 (Accession No. NP_002204.2), human integrin beta 6 (Accession No. NP_000879.2), or human integrin beta 8 (Accession No. NP_002205.1) were prepared using proprietary vectors and vendor provided protocols. Cells were harvested after 4 days and analyzed for integrin expression. To characterize Integrin αvβ3, αvβ5, αvβ6, αvβ8 expression 100,000 cells were incubated in the indicated commercially available or directly conjugated proprietary antibodies for 30 minutes, along with LIVE/DEAD fixable cell stain (Invitrogen) at 1:2000 to distinguish live cells. Cells were spun down for five minutes at 300 g force. The cells were then washed twice with wash buffer (PBS+0.2% BSA) to remove excess unbound antibodies and ananalysed on BD biosciences Fortessa flow cytometer
(§5) 100,000 cells were incubated with a dilution series of the anti-αvβ8 or human IgG1_3 mut Isotype antibody for three to four hours on ice. […] After washing, the stained cells were analyzed on BD biosciences Fortessa flow cytometer (gated for live cells) using FlowJo analysis software. The mean fluorescence intensities (MFI) at different antibody concentrations were plotted for various antibodies.

[10] = target: T6, human αvβ3 integrin on HEK293-F cells (human, UniProt P06756 31-1048; P05106 27-788); assay: flow cytometry, titration of ADWA11 2.4 on HEK cells overexpressing human integrin β3 (gMFI minus secondary), right panel
T6 construct: whole, on cells; HEK293-F cells transiently expressing the full length beta subunit; also called HEK cells expressing αvβ3
T6 sequence (P06756 31-1048, chain 1 of 2): as the sequence (P06756 31-1048, chain 1 of 2) above
T6 sequence (P05106 27-788, chain 2 of 2): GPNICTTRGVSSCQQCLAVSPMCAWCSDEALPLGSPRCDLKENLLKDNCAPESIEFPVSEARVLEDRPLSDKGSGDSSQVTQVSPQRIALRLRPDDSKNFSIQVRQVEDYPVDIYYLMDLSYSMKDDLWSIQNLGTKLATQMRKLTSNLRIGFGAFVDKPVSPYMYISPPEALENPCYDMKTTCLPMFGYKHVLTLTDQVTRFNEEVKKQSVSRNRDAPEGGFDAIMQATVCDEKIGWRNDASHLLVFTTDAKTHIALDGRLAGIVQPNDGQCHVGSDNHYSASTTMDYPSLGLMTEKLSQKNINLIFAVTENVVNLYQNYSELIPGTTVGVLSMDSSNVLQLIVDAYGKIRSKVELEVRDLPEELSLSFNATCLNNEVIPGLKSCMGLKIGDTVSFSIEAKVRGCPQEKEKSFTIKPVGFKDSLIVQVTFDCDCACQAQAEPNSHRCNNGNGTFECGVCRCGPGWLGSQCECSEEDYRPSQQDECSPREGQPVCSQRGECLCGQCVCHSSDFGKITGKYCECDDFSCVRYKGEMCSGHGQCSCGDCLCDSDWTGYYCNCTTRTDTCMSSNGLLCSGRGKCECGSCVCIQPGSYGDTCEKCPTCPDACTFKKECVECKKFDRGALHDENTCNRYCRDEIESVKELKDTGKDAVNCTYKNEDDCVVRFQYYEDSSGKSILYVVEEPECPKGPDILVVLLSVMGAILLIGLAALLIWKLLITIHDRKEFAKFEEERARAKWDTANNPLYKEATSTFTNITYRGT
Method: as §4, §5

[11] = target: T7, human αvβ5 integrin on HEK293-F cells (human, UniProt P06756 31-1048; P18084 24-799); assay: flow cytometry, titration of ADWA11 2.4 on HEK cells overexpressing human integrin β5 (gMFI minus secondary), right panel
T7 construct: whole, on cells; HEK293-F cells transiently expressing the full length beta subunit; also called HEK cells expressing αvβ5
Method: as §4, §5

[12] = target: T8, human αvβ6 integrin on HEK293-F cells (human, UniProt P06756 31-1048; P18564 22-788); assay: flow cytometry, titration of ADWA11 2.4 on HEK cells overexpressing human integrin β6 (gMFI minus secondary), right panel
T8 construct: whole, on cells; HEK293-F cells transiently expressing the full length beta subunit; also called HEK cells expressing αvβ6
Method: as §4, §5

[13] = target: T1, human αvβ8 integrin on U251 cells; assay: flow cytometry, IgG binding to U251 cells (MFI PE-A), left panel ADWA11_IgG_U251 cell binding; EC50 unit inferred, axis Log10 [mAb] nM
[14] = target: T2, mouse αvβ8 integrin on C8-S cells; assay: flow cytometry, IgG binding to C8-S cells (MFI PE-A), right panel ADWA11_IgG_C8-S cell binding; EC50 unit inferred, axis Log10 [mAb] nM
Method: as §1, §2

- IC50 (read off the curve) [1]: 0.1 nM
- IC50 in the TGFβ transactivation assay with U251 cells [2]: 199 pM
- EC50 [3]: 0.256 nM
- EC50 [4]: 0.145 nM
- IC50 (read off the curve) [5]: ~0.2 nM
- binding result [6]: no binding
- binding result [7]: no binding
- EC50 [8]: 0.126 nM
- EC50 (read off the curve) [9]: ~2 nM
- binding result [10]: no binding (tested: 100 nM)
- binding result [11]: no binding (tested: 100 nM)
- binding result [12]: no binding (tested: 100 nM)
- EC50 [13]: 0.105 nM
- EC50 [14]: 0.115 nM
B1: ADWA11 2.4 (IgG) (antibody, V domains shown)
VH: EVQLVESGGGLVQPGGSLRLSCAASGFNIKDYYMNWVRQAPGKGLEWVGWIDPDQGNTIYEPKFQGRFTISADTSKNSAYLQMNSLRAEDTAVYYCARRLLMDYWGQGTLVTVSS
VL: DIQMTQSPSSLSASVGDRVTITCRSTKSLSHFNGNTYLFWYQQKPGKAPKRLIYYMSSLASGVPSRFSGSGSGTDFTLTISSLQPEDFATYYCQQSLEYPFTFGGGTKVEIKR
notes: Human IgG1 effectorless (L234A, L235A, G237A), kappa; also called ADWA11 VH05-2/VK01(2.4); ADWA11_VH05-2_VK01(2.4)
